{
  "source": "paper PMC3826915",
  "about": "(Nature medicine, 2013)",
  "molecules": {"B1": {"name": "Recombinant human cold-inducible RNA-binding protein (rhCIRP) (natural protein, UniProt Q14011-1 1-172, looked up)", "chain": "MASDEGKLFVGGLSFDTNEQSLEQVFSKYGQISEVVVVKDRETQRSRGFGFVTFENIDDAKDAMMAMNGKSVDGRQIRVDQAGKSSDNRSRGYRGGSAGGRGFFRGGRGRGRGFSRGGGDRGYGGNRFESRSGGYGGSRDYYSSRSQSGGYSDRSSGGSYRDSYDSYATHNE"}},
  "key": {"TLR4 (Homo sapiens)": {"target": "TLR4 (Homo sapiens) (UniProt O00206)", "sequence (O00206 24-631)": "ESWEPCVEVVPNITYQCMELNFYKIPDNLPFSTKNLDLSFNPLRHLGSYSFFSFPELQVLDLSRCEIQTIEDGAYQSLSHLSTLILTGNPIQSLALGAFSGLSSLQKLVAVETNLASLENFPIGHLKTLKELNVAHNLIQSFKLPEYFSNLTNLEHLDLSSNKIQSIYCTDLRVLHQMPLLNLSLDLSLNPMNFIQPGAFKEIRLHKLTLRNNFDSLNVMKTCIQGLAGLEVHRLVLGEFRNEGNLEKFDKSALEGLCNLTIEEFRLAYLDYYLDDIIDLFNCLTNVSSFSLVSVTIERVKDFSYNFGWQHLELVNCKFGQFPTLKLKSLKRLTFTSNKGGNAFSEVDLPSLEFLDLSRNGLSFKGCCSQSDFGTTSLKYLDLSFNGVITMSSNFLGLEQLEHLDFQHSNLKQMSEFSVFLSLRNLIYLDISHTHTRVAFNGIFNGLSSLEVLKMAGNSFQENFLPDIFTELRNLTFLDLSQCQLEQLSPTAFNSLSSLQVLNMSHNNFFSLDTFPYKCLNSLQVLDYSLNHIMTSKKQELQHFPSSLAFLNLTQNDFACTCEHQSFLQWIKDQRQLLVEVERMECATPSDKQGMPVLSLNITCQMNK", "conditions": "cited from earlier work"}, "MD2 (Homo sapiens)": {"target": "MD2 (Homo sapiens) (UniProt Q9Y6Y9)", "conditions": "cited from earlier work"}, "TLR4/MD2 (Homo sapiens)": {"target": "TLR4/MD2 (Homo sapiens) (UniProt O00206)", "sequence (O00206 24-839)": "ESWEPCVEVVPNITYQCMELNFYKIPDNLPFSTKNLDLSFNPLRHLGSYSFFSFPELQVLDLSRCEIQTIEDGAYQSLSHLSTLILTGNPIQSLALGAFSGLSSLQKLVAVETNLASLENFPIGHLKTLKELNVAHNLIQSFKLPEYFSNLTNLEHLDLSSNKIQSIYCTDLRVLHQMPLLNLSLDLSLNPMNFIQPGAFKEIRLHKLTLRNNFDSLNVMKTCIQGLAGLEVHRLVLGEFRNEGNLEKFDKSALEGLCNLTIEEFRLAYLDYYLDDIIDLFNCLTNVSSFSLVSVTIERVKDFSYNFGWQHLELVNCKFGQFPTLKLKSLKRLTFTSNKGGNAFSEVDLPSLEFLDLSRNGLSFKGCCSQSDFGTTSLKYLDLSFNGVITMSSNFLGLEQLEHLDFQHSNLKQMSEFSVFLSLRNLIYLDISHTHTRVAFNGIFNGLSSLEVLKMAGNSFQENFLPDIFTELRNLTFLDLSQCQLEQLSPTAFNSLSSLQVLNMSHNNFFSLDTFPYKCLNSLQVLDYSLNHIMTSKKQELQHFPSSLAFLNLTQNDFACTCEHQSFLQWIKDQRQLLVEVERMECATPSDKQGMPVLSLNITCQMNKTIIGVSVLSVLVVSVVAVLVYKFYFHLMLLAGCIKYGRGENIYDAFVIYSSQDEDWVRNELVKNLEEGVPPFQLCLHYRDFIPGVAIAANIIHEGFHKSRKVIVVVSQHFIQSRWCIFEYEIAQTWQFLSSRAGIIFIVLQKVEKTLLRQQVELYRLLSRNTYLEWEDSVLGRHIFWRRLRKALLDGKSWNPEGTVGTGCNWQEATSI", "assay": "SPR", "conditions": "cited from earlier work"}, "[1]": {"target": "B1", "assay": "SPR"}, "[2]": {"target": "Recombinant human TLR4 (rhTLR4), Glu24-Lys631 (human, UniProt O00206 24-631)", "sequence (O00206 24-631)": "as the sequence (O00206 24-631) above", "assay": "SPR"}, "[3]": {"target": "Recombinant human TLR2 (rhTLR2), Glu21-Leu590 (human, UniProt O60603 21-590)", "sequence (O60603 21-590)": "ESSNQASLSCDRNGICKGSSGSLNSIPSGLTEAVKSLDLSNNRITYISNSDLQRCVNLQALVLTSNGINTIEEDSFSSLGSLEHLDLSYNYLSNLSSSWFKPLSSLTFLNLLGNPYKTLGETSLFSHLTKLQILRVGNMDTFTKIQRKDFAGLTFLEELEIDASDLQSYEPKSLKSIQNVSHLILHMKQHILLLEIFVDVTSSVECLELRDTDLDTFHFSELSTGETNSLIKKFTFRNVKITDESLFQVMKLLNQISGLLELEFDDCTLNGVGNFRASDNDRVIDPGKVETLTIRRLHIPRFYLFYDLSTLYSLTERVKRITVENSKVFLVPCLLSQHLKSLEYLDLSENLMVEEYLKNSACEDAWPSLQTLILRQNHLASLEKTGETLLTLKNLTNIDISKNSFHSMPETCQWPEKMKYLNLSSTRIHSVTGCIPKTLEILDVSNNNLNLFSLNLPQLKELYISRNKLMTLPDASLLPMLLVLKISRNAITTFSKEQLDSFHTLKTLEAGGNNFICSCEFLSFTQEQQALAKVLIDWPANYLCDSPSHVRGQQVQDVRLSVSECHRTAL", "assay": "SPR"}, "[4]": {"target": "Recombinant human TLR4/MD2 complex (rhTLR4/MD2) (human, UniProt O00206 24-631; Q9Y6Y9 17-160)", "sequence (O00206 24-631, one chain of several)": "as the sequence (O00206 24-631) above", "assay": "SPR"}, "[5]": {"target": "Recombinant human RAGE (rhRAGE), Ala23-Ala344 (human, UniProt Q15109 23-344)", "sequence (Q15109 23-344)": "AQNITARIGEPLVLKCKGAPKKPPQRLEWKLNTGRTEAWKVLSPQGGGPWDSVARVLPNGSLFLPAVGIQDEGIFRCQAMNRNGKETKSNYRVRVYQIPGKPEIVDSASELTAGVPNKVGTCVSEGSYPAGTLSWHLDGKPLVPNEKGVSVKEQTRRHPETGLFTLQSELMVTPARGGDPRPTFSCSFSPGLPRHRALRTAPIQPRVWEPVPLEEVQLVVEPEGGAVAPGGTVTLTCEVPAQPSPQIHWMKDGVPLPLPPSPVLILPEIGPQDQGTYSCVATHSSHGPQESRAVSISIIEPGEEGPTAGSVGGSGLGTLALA", "assay": "SPR"}},
  "data": [
    {"molecule": "MD2 (from UniProt Q9Y6Y9)", "values": [
      {"measurement": "Kd", "setting": "TLR4 (Homo sapiens)", "result": 62.9, "unit": "nM"}
    ]},
    {"molecule": "HMGB1 (from UniProt P09429)", "values": [
      {"measurement": "Kd", "setting": "MD2 (Homo sapiens)", "result": 8, "unit": "nM"},
      {"measurement": "Kd", "setting": "TLR4/MD2 (Homo sapiens)", "result": 1500, "unit": "nM"}
    ]},
    {"molecule": "Recombinant human MD2 (rhMD2), Glu17-Asn160 (natural protein, UniProt Q9Y6Y9 17-160, looked up) EAQKQYWVCNSSDASISYTYCDKMQYPISINVNPCIELKRSKGLLHIFYIPRRDLKQLYFNLYITVNTMNLPKRKEVICRGSDDDYSFCRALKGETVNTTISFSFKGIKFSKGKYKCVVEAISGSPEEMLFCLEFVILHQPNSN", "values": [
      {"measurement": "Kd", "setting": "[1]", "result": 302, "unit": "nM"},
      {"measurement": "Kd", "setting": "[2]", "result": 53.7, "unit": "nM"}
    ]},
    {"molecule": "B1", "values": [
      {"measurement": "Kd", "setting": "[3]", "result": 258, "unit": "nM"},
      {"measurement": "Kd", "setting": "[4]", "result": 239, "unit": "nM"},
      {"measurement": "Kd", "setting": "[5]", "result": 33.1, "unit": "nM"},
      {"measurement": "Kd", "setting": "[2]", "result": 617, "unit": "nM"}
    ]}
  ]
}
